Consider one substance from paper PMC8199443.

The stoichiometry N is a count of units in the complex or per binding partner.

This experiment has as its target OpuABC-SS, OpuABC subunit of the ABC transporter OpuA with a C-terminal TwinStrepII-tag (Lactococcus lactis). Description: SEC; affinity-purified OpuA reconstituted in MSP1D1 nanodiscs (DOPE/DOPC/DOPG; OpuA/MSP1D1/lipid 1:20:2000 or 1:20:1000), Superdex 200 Increase 10/300 GL, 50 mM KPi pH 7.0, 200 mM KCl; peak fraction on SDS-PAGE. On the technique in general: SEC sorts molecules by how far they enter the pores of the column.

The substance “OpuABC-SS, OpuABC subunit of the ABC transporter OpuA with a C-terminal TwinStrepII-tag (natural protein)” yielded a stoichiometry N of 2.
